Data set [1] relates to T1, Ala-Ala-Tyr-Ala-Ala.
T1 sequence: AAYAA

Data set [2] has as its target DnaK (Escherichia coli) (UniProt P0A6Y8). The data set can be described thus: cell-based or functional assay.

Sequence of DnaK (Escherichia coli) (P0A6Y8 2-638 limits assumed): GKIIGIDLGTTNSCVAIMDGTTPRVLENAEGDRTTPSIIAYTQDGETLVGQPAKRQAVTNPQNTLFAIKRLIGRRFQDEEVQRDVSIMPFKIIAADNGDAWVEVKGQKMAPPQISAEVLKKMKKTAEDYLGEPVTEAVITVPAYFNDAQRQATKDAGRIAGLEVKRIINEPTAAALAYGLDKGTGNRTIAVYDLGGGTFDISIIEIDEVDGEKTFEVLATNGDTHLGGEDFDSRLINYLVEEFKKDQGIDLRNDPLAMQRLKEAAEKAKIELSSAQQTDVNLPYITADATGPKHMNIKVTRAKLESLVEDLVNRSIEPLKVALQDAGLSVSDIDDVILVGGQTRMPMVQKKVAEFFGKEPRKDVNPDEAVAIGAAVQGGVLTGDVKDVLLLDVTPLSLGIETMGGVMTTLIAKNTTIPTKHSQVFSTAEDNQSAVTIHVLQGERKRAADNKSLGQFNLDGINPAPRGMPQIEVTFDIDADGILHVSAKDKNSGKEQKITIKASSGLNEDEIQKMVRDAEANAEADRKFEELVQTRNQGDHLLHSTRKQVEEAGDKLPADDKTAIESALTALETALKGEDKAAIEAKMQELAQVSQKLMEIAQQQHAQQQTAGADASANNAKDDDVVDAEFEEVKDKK

Take FKBP12: in data set [1], the relative intensity of the cross signal of the Ala-Tyr peptide bond (no addition: 3.50 ± 0.51) (relative intensity) was determined as 3.94 and the relative intensity of the cross signal of the Tyr-Ala peptide bond (no addition: 3.89 ± 0.32) (relative intensity) amounted to 2.68. In data set [2], substance P (peptide) came in with an IC50 of the inhibition of the APIase activity of DnaK (spectrophotometric Ala-Leu assay) of 76 µM.

The values are drawn from patent US7589065.
